Series [1] addresses SP-BM generated from human proSP-B by proteinase K (human) (UniProt P07988). Briefly: reducing and non-reducing SDS-PAGE.
The series “non-reducing SDS-PAGE” concerns the molecule itself. Briefly: non-reducing SDS-PAGE.

Data on 2 molecules can be found in article PMC7797001 (Molecular cell, 2020).

As to “SP-BM generated from human proSP-B by proteinase K (from UniProt P07988 201-279) (domain or fragment)”, the stoichiometry N in series [1] was found to be 2.

B1: SP-BM purified from bovine lungs (natural protein, UniProt P15781 188-266, looked up)
chain: FPIPIPYCWLCRTLIKRIQAVIPKGVLAMTVAQVCHVVPLLVGGICQCLVERYSVILLDTLLGRMLPQLVCGLVLRCSS
B1: the “stoichiometry N” value in the series “non-reducing SDS-PAGE” turned out to be 2.

For orientation: stoichiometry N means the number of molecules, sites or subunits per partner or assembly.
